According to article PMC9081212:

Target: wild-type human γS-crystallin (human) (UniProt P22914)
Assay: SEC-MALS

stoichiometry N: 2
Substance: wild-type human γS-crystallin (from UniProt P22914 1-178) (natural protein)
